Test results published in patent publication US8030025B2.
Values joined by “and” are separate entries in the source; they are usually repeats but may differ in a detail not shown here. Equal values may be shown once. Blank lines part the entries; values can stand above or below the substance they belong to.

How the values were obtained:
[1] = target: biotinylated human angiopoietin 1 (human) (UniProt Q15389); test: HTRF neutralization; biotin-hAng1 vs huTie-2-Fc-APC
[2] = target: biotinylated human angiopoietin 2 (human) (UniProt O15123); test: HTRF neutralization; biotin-hAng2 vs huTie-2-Fc-APC
[3] = target: biotinylated human angiopoietin 2 (human) (UniProt O15123); test: angiopoietin:Tie2 neutralization HTRF; biotin-hAng2 vs Tie2-APC
[4] = target: biotinylated human angiopoietin 1 (human) (UniProt Q15389); test: angiopoietin:Tie2 neutralization HTRF; biotin-hAng1 vs Tie2-APC
[5] = target: Human Ang2 (human) (UniProt O15123); test: neutralization ELISA; coated angiopoietin vs Tie2-Fc
[6] = target: Murine Ang2 (mouse) (UniProt O35608); test: as above
[7] = target: Cyno Ang1 (cynomolgus monkey); test: as above
[8] = target: Murine Ang1 (mouse) (UniProt O08538); test: as above
[9] = target: Human Ang1 (human) (UniProt Q15389); test: as above
[10] = target: Cyno Ang2 (cynomolgus monkey); test: as above
[11] = target: Rabbit Ang1 (rabbit) (UniProt G1SK98); test: as above
[12] = target: Rabbit Ang2 (rabbit) (UniProt G1T9B3); test: as above
[13] = target: Tie2 in mouse lung endothelium (mouse) (UniProt Q02858)
[14] = target: Human Ang2 (human) (UniProt O15123); test: angiopoietin:Tie2 neutralization ELISA; coated angiopoietin vs hTie2-Fc
[15] = target: Murine Ang2 (mouse) (UniProt O35608); test: as above
[16] = target: Cyno Ang1 (cynomolgus monkey); test: as above
[17] = target: Murine Ang1 (mouse) (UniProt O08538); test: as above
[18] = target: Human Ang1 (human) (UniProt Q15389); test: as above
[19] = target: Cyno Ang2 (cynomolgus monkey); test: as above
[20] = target: Rabbit Ang1 (rabbit) (UniProt G1SK98); test: as above

IC50 [1]: 2.6 nM and 3.9 nM | IC90 [1]: 106 nM and 278 nM | IC50 [2]: 0.03 nM | IC90 [2]: 0.13 nM and 0.15 nM | IC50 [3]: 0.029 nM | IC50 [4]: 6.2 nM | IC50 [5]: 0.12 nM | IC50 [6]: 0.1 nM | IC50 [7]: 2.9 nM | IC50 [8]: 2.7 nM | IC50 [9]: 1.2 nM | IC50 [10]: 0.17 nM | IC50 [11]: 4.3 nM | IC50 [12]: 0.1 nM
Substance: AMG 386 (Fc fusion)

Tie2 phosphorylation in mouse lung endothelium [13]: 5 fold
Substance: recombinant Ang1 (R&D Systems Inc.) (ligand)

IC50 [3]: > 10000 nM | IC50 [14]: > 10000 nM | IC50 [15]: > 10000 nM | IC50 [16]: > 10000 nM | IC50 [17]: > 10000 nM | IC50 [18]: > 10000 nM | IC50 [19]: > 10000 nM | IC50 [20]: > 10000 nM | IC50 [4]: > 10000 nM
Substance: Fc

IC50 [3]: 0.064 nM | IC50 [4]: > 10000 nM
Substance: L1-7(N) (Fc fusion)
